The values that follow come from PMC4622054.

The koff is the first-order rate constant of dissociation.

Like-named read-outs stand apart in the source and are kept apart here.

Experiment [1] has as its target Human FcRn (hFcRn), soluble α-chain/β2m heterodimer (human) (UniProt P55899). Put plainly: BLI; hFcRn-loaded surface; human IgG1 as analyte, association at pH 6.0 and dissociation at pH 6.0. For orientation: Biolayer interferometry detects binding as a change in optical thickness at a sensor tip.
The target is the same in experiment [2]. Description: BLI.
For experiment [3] the target is unchanged. Description: BLI. This is another data set of the same source.
For experiment [4], the target named is CDA1 (actoxumab), human IgG1 monoclonal antibody (UniProt P01857). Put plainly: biolayer interferometry (Octet QK, ForteBio). Particulars: 30°C, PBS (composition and salt concentration not stated), PBS adjusted to pH 6.0 with HCl for the acidic steps, PBS pH 7.5 for the physiological-pH steps.
Experiment [5] addresses Human FcRn (hFcRn), soluble α-chain/β2m heterodimer, P55899;P61769. Put plainly: BLI (in vitro BLI-based FcRn platform). Conditions: parent: est. 270; read off a plot.

Sequence of Human FcRn (hFcRn), soluble α-chain/β2m heterodimer (human) (P55899 34-290, chain 1 of 2): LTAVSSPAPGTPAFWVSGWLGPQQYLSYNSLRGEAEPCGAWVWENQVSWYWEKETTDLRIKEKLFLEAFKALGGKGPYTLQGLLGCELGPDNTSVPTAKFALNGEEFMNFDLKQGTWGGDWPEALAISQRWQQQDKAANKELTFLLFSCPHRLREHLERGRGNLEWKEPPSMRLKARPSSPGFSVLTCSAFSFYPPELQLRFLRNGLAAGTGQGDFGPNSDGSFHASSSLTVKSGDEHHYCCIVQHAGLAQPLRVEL
Sequence of Human FcRn (hFcRn), soluble α-chain/β2m heterodimer (human) (P61769 21-119, chain 2 of 2, further chain): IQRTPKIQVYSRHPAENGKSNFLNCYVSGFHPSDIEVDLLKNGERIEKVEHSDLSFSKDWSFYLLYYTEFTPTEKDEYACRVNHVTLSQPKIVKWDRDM

Substance “CDA1 (actoxumab), fully human IgG1 mAb (antibody)” came in with a fold slower off-rate at pH 6.0 than at pH 7.5 in experiment [1] of 5 fold. The koff in experiment [2] is 0.101 s⁻¹. Besides, in experiment [3], the fold change FcRn binding rate turned out to be 1.14 fold, the fold change of the association rate against RAB1 was 1.09 fold, the fold change of the dissociation rate against CDB1 is 1.18 fold and the koff amounted to 0.0906 s⁻¹.
Consider “soluble human neonatal Fc receptor (hFcRn; alpha-chain/beta2-microglobulin heterodimer)”, for which, in experiment [4] (pH 6.0), the “average association rate (apparent kon)” value worked out at 0.2087 ± 0.0036 s⁻¹ and the “kon (apparent association rate)” value stood at 0.110 s⁻¹. Moreover, in experiment [4] (pH 7.5), the “average dissociation rate (koff)” value is 0.0906 ± 0.0034 s⁻¹ and the koff stood at 0.101 s⁻¹.
Turning to “HCV1, fully human IgG1 mAb HCV (with CDA VH CDRs and CDB Vk CDRs): VH CDR1-3 of HCV1 replaced by VH CDRs of CDA1; Vk CDR1-3 of HCV1 replaced by Vk CDRs of CDB1; residues not printed”, the other: Predicted Human t1/2, β in experiment [5] was 27.1 days.
